Assay [1] has as its target T1, biotinylated recombinant human IL-12Rβ2 (human, UniProt Q99665 24-622, random biotinylated).
T1 construct: Recombinant protein produced in-house; also called hIL-12RB2; human IL-12RB2
T1 sequence: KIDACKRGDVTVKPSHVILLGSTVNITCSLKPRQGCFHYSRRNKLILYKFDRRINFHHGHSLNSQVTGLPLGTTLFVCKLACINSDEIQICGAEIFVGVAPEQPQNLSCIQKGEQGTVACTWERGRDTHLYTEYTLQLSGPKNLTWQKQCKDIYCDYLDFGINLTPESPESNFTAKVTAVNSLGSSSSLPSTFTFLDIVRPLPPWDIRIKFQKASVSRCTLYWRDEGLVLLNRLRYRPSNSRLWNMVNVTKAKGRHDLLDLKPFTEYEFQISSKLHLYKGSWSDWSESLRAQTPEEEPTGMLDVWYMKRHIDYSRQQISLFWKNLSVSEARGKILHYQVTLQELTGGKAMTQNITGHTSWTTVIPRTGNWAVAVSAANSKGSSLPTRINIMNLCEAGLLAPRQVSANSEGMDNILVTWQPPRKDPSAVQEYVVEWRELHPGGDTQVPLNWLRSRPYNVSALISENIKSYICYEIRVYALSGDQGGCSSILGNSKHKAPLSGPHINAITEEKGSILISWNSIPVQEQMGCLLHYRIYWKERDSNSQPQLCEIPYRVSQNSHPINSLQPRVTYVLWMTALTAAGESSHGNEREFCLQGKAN
The assay is described as follows: ELISA, P.E., biotinylated antigen.

Assay [2] concerns the target T2, biotinylated recombinant mouse IL-12Rβ2 (mouse, UniProt P97378 24-637, random biotinylated).
T2 construct: Recombinant protein produced in-house; also called mIL-12RB2; mouse IL-12RB2
T2 sequence: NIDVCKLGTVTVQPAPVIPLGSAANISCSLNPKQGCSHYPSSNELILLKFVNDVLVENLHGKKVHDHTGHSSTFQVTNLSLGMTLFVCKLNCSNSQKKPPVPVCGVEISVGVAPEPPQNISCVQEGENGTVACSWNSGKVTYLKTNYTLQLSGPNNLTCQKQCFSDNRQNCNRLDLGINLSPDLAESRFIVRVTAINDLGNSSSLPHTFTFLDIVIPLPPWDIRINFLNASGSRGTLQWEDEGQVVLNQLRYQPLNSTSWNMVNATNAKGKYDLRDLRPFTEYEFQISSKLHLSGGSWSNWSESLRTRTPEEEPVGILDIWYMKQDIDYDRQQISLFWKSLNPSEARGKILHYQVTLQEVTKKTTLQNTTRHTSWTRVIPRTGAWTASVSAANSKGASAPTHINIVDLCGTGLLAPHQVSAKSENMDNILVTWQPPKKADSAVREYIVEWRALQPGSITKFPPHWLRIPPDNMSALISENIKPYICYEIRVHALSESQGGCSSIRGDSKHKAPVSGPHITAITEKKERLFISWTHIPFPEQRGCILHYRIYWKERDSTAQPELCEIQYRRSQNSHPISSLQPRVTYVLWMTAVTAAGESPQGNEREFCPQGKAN
The assay is described as follows: ELISA, P.E., biotinylated antigen. (ELISA stands for enzyme-linked immunosorbent assay.)

Assay [3] deals with T1, biotinylated recombinant human IL-12Rβ2. As to the kind of experiment: BLI, P.E., off-rate ranking. A general note: Biolayer interferometry detects binding as a change in optical thickness at a sensor tip.

B1: anti-IL-12Rβ2 VHH clone 3CRH38 (clone ID 20381) (VHH, not shown: small tags and cut ends)
VHH: QVQLQESGGGLVQAGGSLVLSCAASGSAALIFLMSWYRQAPGKQRELVAEVSRGGSTTYADSVEGRFTISRDNAKNIVDLQMNSLKPEDTAVYYCKADQNYGDSLRSSWGRGTQVTVSS
notes: periplasmic extract
As for B1, the “ELISA hIL-12RB2/control” value in assay [1] stood at 11.8. In addition, the “ELISA mIL-12RB2/control” value in assay [2] came out at 1.85. In assay [3], the Response stood at 0.475 and the koff came to 0.00413 s⁻¹.

B2: anti-IL-12Rβ2 VHH clone 2CRH53 (clone ID 20366) (VHH, not shown: small tags and cut ends)
VHH: QVQLQESGGGLVQAGGSLVLSCAASGSAALIFLMSWYRQAPGKQRELVAEVSRYGSTTYADSVEGRFTISRDNAKDIVDLQMNSLKPEDTAVYYCKADQYYGDSLRSSWGRGTQVTVSS
notes: periplasmic extract
For the molecule B2, in assay [1], the “ELISA hIL-12RB2/control” value is 5.51. For the same molecule, in assay [2], the “ELISA mIL-12RB2/control” value turned out to be 0.967. Besides, in assay [3], the Response is 0.652 and the koff came to 0.00598 s⁻¹.

B3: anti-IL-12Rβ2 VHH clone 3CRHS2 (clone ID 20413) (VHH, not shown: small tags and cut ends)
VHH: QVQLQESGGGLVQLGGSLTLSCAASGSAALIFLMSWYRQAPGKQRELVAEVSRYGSTTYADSVEGRFTISRDNAKNIVDLQMNSLKPEDTAVYYCKADQYYGDSLRSSWGRGTQVTVSS
notes: periplasmic extract
Take B3: the “ELISA hIL-12RB2/control” value in assay [1] came to 5.59. For the same molecule, the “ELISA mIL-12RB2/control” value in assay [2] stood at 1.01. Also, in assay [3], the Response was determined as 0.5 and the dissociation rate constant (koff) was 0.00404 s⁻¹.

B4: anti-IL-12Rβ2 VHH clone 3CAHS39 (clone ID 20393) (VHH, not shown: small tags and cut ends)
VHH: QVQLQESGGGLVQAGGSLRLSCAASGRTINAYIMGWFRQAPGKEREFVAAVSGSGGSTYYADSVKGRFTISRDNAKNTVNLQMDNLRSEDTDVYYCAATYESVYLQNPGQYDYWGQGTQVTVSS
notes: periplasmic extract
Consider B4, for which the “ELISA hIL-12RB2/control” value in assay [1] was found to be 4.73. Besides, the “ELISA mIL-12RB2/control” value in assay [2] stood at 1.14. Besides, in assay [3], the Response stood at 0.612 and the koff came out at 0.00508 s⁻¹.

B5: anti-IL-12Rβ2 VHH clone 3CAHS53 (clone ID 20397) (VHH, not shown: small tags and cut ends)
VHH: QVQLQESGGGLVEPGGSLRLSCAASGRTINAYIMGWFRQAPGKEREFVAAVSGSGGSTYYADSVKGRFTISRDSAKNTVNLQMDNLRSEDTDVYYCAATYESVYLQNPGQYDYWGQGTQVTVSS
notes: periplasmic extract
For B5, the “ELISA hIL-12RB2/control” value in assay [1] came to 6.58. Further, in assay [2], the “ELISA mIL-12RB2/control” value turned out to be 1.1. Moreover, in assay [3], the Response stood at 0.47 and the koff is 0.00479 s⁻¹.

B6: anti-IL-12Rβ2 VHH clone 3CAHS124 (clone ID 20400) (VHH, not shown: small tags and cut ends)
VHH: QVQLQESGGGLVQPGGSLRLSCAASGRTINAYIMGWFRQAPGKEREFVAAVSGSGGSTYYADSVKGRFTISRDNAKNTVNLQMDNLRSEDTDVYYCAATYESVYLQNPGQYDYWGQGTQVTVSS
notes: periplasmic extract
On to B6, for which, in assay [1], the “ELISA hIL-12RB2/control” value came out at 5.67. Further, the “ELISA mIL-12RB2/control” value in assay [2] was 1. In assay [3], the Response is 0.293 and the koff is 0.00324 s⁻¹.

B7: anti-IL-12Rβ2 VHH clone 3CAHS43 (clone ID 20395) (VHH, not shown: small tags and cut ends)
VHH: QVQLQESGGGSVQAGGSLRLSCAASGRTINAYIMGWFRQAPGKEREFVAAVSGSGGSTYYADSVKGRFTISRDNAKNTVNLQMDNLRSEDTDVYYCAATYESVYLRNPGQYDYWGQGTQVTVSS
notes: periplasmic extract
B7: in assay [1], the “ELISA hIL-12RB2/control” value is 8.23. For the same molecule, the “ELISA mIL-12RB2/control” value in assay [2] stood at 1.31. In assay [3], the Response is 0.605 and the koff worked out at 0.00485 s⁻¹.

B8: anti-IL-12Rβ2 VHH clone 3CAHS150 (clone ID 20403) (VHH, not shown: small tags and cut ends)
VHH: QVQLQESGGGSVQAGGSLRLSCAASGRTINAYVMGWFRQAPGKEREFVAAISGSGGSTYYADSVKGRFTISRDNAKNTVNLQMDNLRSEDTDVYYCAATYESVYLQNPGQYDYWGQGTQVTVSS
notes: periplasmic extract
In the case of B8, the “ELISA hIL-12RB2/control” value in assay [1] is 4.54. For the same molecule, the “ELISA mIL-12RB2/control” value in assay [2] was 0.988. Moreover, in assay [3], the Response turned out to be 0.31 and the koff came out at 0.00369 s⁻¹.

B9: anti-IL-12Rβ2 VHH clone 3CAHS52 (clone ID 20396) (VHH, not shown: small tags and cut ends)
VHH: QVQLQESGGGSVQAGGSLRLSCAASGRTINAYIMGWFRQAPGKEREFVAAVSGSGGSTYYADSVKGRFTISRDNAKNTVNLQMDNLRSEDTDVYYCAATYESVYLQNPGQYDYWGQGTQVTVSS
notes: periplasmic extract
As for B9, the “ELISA hIL-12RB2/control” value in assay [1] stood at 10. Moreover, the “ELISA mIL-12RB2/control” value in assay [2] amounted to 1.22. Also, in assay [3], the Response amounted to 0.508 and the koff was found to be 0.00422 s⁻¹.

B10: anti-IL-12Rβ2 VHH clone 3CRH45 (clone ID 20383) (VHH, not shown: small tags and cut ends)
VHH: QVQLQESGGGLVQPGGSLRLSCAASGFTFSTFGMHWFRQAPGKGLEWVSSIGIIDDNSYYASSVKGRFTISRDNAKNTLYLQMNSLKSEDTAVYYCSKDTTGSSRGQGTQVTVSS
notes: periplasmic extract
B10: in assay [1], the “ELISA hIL-12RB2/control” value is 4.58. Moreover, the “ELISA mIL-12RB2/control” value in assay [2] is 1.39. Moreover, in assay [3], the Response was found to be 0.427 and the koff was determined as 0.00361 s⁻¹.

B11: anti-IL-12Rβ2 VHH clone 3CRHS128 (clone ID 20432) (VHH, not shown: small tags and cut ends)
VHH: QVQLQESGGGLVQPGGSLRLSCAASGFTFSTSGMHWFRQAPGKGLEWVSSIGATVDNSYYASSVKGRFTISRDNAKNTLYLLMNSLKSEDTAVYYCSKDPTGSSRGQGTQVTVSS
notes: periplasmic extract
Turning to B11, the “ELISA hIL-12RB2/control” value in assay [1] came to 3.65. In assay [2], the “ELISA mIL-12RB2/control” value came out at 0.984. Besides, in assay [3], the Response turned out to be 0.294 and the koff is 0.00274 s⁻¹.

B12: anti-IL-12Rβ2 VHH clone 3CRHS109 (clone ID 20430) (VHH, not shown: small tags and cut ends)
VHH: QVQLQESGGGLVQPGGSLRLSCAASGFTFSTSGMHWFRQAPGKGLEWVSSIGIIVDSSYYASSVKGRFTISRDNAKNTLYLHMNSLKSEDTAVYYCSKDVTGSSRGQGTQVTVSS
notes: periplasmic extract
In the case of B12, in assay [1], the “ELISA hIL-12RB2/control” value is 3.18. In addition, the “ELISA mIL-12RB2/control” value in assay [2] was 1.07. Besides, in assay [3], the Response is 0.745 and the koff was found to be 0.0374 s⁻¹.

B13: anti-IL-12Rβ2 VHH clone 3CAHS170 (clone ID 20406) (VHH, not shown: small tags and cut ends)
VHH: QVQLQESGGGLVQAGGSLRLSCVASGRTFSSYAMGWFRQGPGKEREFVAAISWSGVSIYYADSVKGRFTISRDNAKNTVYLQMNSLEPEDTAVYYCAGTEGAYTVAGGSTFGYDMDYWGKGTQVTVSS
notes: periplasmic extract
Turning to B13, in assay [1], the “ELISA hIL-12RB2/control” value amounted to 5.87. Also, the “ELISA mIL-12RB2/control” value in assay [2] amounted to 0.945. Further, in assay [3], the Response came to 0.515 and the koff was 0.00379 s⁻¹.

B14: anti-IL-12Rβ2 VHH clone 3CAH48 (clone ID 20360) (VHH, not shown: small tags and cut ends)
VHH: QVQLQESGGGLVQAGGSLRLSCAASGRTFSSYAMGWFRQGPGKEREFVAAISWSGVSTYYADSVKGRFTISRDNAKNTVYLQMNSLRPEDTAVYYCAATEGAYTVAGGSTFGYDMDYWGKGTQVTVSS
notes: periplasmic extract
In the case of B14, the “ELISA hIL-12RB2/control” value in assay [1] was found to be 9.56. The “ELISA mIL-12RB2/control” value in assay [2] is 1.11. In assay [3], the Response stood at 0.759 and the koff turned out to be 0.00443 s⁻¹.

B15: anti-IL-12Rβ2 VHH clone 2CAH27 (clone ID 20354) (VHH, not shown: small tags and cut ends)
VHH: QVQLQESGGGSVQSGGSLRLSCVASGRTFSSYAMGWFRQGPGKEREFVAAISWSGVSIYYADSVKGRFTISRDNAKNTVYLQMNSLEPEDTAVYYCAGTEGAYTVAGGSTFGYDMDYWGKGTQVTVSS
notes: periplasmic extract
In the case of B15, the “ELISA hIL-12RB2/control” value in assay [1] came out at 3.84. Further, the “ELISA mIL-12RB2/control” value in assay [2] worked out at 1.05. In addition, in assay [3], the Response was determined as 0.482 and the koff was found to be 0.00494 s⁻¹.

B16: anti-IL-12Rβ2 VHH clone 3CAHS142 (clone ID 20401) (VHH, not shown: small tags and cut ends)
VHH: QVQLQESGGGLVQAGESLTLSCIASGVIKDYAMGWFRQAPGKEREFVAAISWSGVSIYYADSVKGRFTISRDNAKNTVYLQMNSLEPEDTAVYYCAGTEGAYTVAGGSTFGYDMDYWGKGTQVTVSS
notes: periplasmic extract
In the case of B16, the “ELISA hIL-12RB2/control” value in assay [1] was found to be 4.98. In addition, the “ELISA mIL-12RB2/control” value in assay [2] worked out at 1.07. Also, in assay [3], the Response is 0.352 and the koff was determined as 0.00324 s⁻¹.

The koff is the rate constant with which the complex falls apart.

These data come from patent publication US20260209362A1 (VIB VZW, published 2026).
